The source of these data is patent US20230295344A1 (published 2023).

Ends that are not written are not given here. * marks the point of attachment. Biotin = O=C1N[C@H]2[C@H](CS[C@H]2CCCCC(=O)*)N1

What all share (experiment): labelled AK1967 on biotinylated peptide on avidin plate, chemiluminescence
The target of test [1] is T1, epitope mapping peptide #1 (N-terminal biotin).
T1 peptide: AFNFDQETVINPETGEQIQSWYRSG
The procedure:
(§1) These peptides include the sequence of the full immunization peptide (SEQ ID No. 2) or fragments thereof, with stepwise removal of one amino acid from either C- or N-terminus (see table 5 for a complete list of peptides).
(§2) High binding 96 well plates were coated with 2 µg Avidin per well (Greiner Bio-One international AG, Austria) in coupling buffer (500 mM Tris-HCl, pH 7.8, 100 mM NaCl). Afterwards plate were washed and filled with specific solutions of biotinylated peptides (10 ng/ well; buffer – 1xPBS with 0.5% BSA)
(§3) The plates were filled with 200 µl of labeled and diluted detection antibody (tracer) and incubated for 4 h at room temperature. Unbound tracer was removed by washing 4 times with 350 µl washing solution (20 mM PBS, pH 7.4, 0.1 % Triton X-100). Well-bound chemiluminescence was measured by using the Centro LB 960 luminometer (Berthold Technologies GmbH & Co. KG).

Test [2] concerns the target T2, epitope mapping peptide #2.
T2 peptide: Biotin-AFNFDQETVINPETGEQIQ
As for the experimental part:
as §1, §2, §3

For test [3], the target named is T3, epitope mapping peptide #3.
T3 peptide: Biotin-AFNFDQETVINPETGEQI
As for the experimental part: as §1, §2, §3

Test [4] addresses T4, epitope mapping peptide #4.
T4 peptide: Biotin-AFNFDQETVINPETGEQ
As for the experimental part: as §1, §2, §3

Test [5] concerns the target T5, epitope mapping peptide #5.
T5 peptide: Biotin-AFNFDQETVINPETGE
The procedure: as §1, §2, §3

In test [6] the target is T6, epitope mapping peptide #6.
T6 peptide: Biotin-AFNFDQETVINPETG
The procedure:
as §1, §2, §3

The target of test [7] is T7, epitope mapping peptide #8.
T7 peptide: Biotin-AFNFDQETVINPE
The procedure:
as §1, §2, §3

Test [8] addresses T8, epitope mapping peptide #9.
T8 peptide: Biotin-AFNFDQETVINP
The procedure:
as §1, §2, §3

Test [9] concerns the target T9, epitope mapping peptide #10.
T9 peptide: Biotin-AFNFDQETVIN
As for the experimental part:
as §1, §2, §3

Test [10] concerns the target T10, epitope mapping peptide #11.
T10 construct: final K stands where DPP3 has R
T10 peptide: ETGEQIQSWYK(Biotin)
As for the experimental part: as §1, §2, §3

Test [11] deals with T11, epitope mapping peptide #12.
T11 construct: final K stands where DPP3 has R
T11 peptide: PETGEQIQSWYK(Biotin)
As for the experimental part: as §1, §2, §3

In test [12] the target is T12, epitope mapping peptide #13.
T12 construct: final K stands where DPP3 has R
T12 peptide: NPETGEQIQSWYK(Biotin)
As for the experimental part:
as §1, §2, §3

The target in test [13] is T13, epitope mapping peptide #14.
T13 construct: final K stands where DPP3 has R
T13 peptide: INPETGEQIQSWYK(Biotin)
The procedure: as §1, §2, §3

Test [14] has as its target T14, epitope mapping peptide #15.
T14 construct: final K stands where DPP3 has R
T14 peptide: VINPETGEQIQSWYK(Biotin)
As for the experimental part: as §1, §2, §3

The target of test [15] is T15, epitope mapping peptide #16.
T15 construct: final K stands where DPP3 has R
T15 peptide: TVINPETGEQIQSWYK(Biotin)
The procedure: as §1, §2, §3

Test [16] deals with T16, epitope mapping peptide #17.
T16 construct: final K stands where DPP3 has R
T16 peptide: ETVINPETGEQIQSWYK(Biotin)
As for the experimental part:
as §1, §2, §3

B1: murine monoclonal anti-DPP3 antibody AK1967 (clone 1967) (antibody, V domains shown)
VH: QVTLKESGPGILQPSQTLSLTCSFSGFSLSTSGMSVGWIRQPSGKGLEWLAHIWWNDNKSYNPALKSRLTISRDTSNNQVFLKIASVVTADTGTYFCARNYSYDYWGQGTTLTVSS
VL: DVVVTQTPLSLSVSLGDPASISCRSSRSLVHSIGSTYLHWYLQKPGQSPKLLIYKVSNRFSGVPDRFSGSGSGTDFTLKISRVEAEDLGVYFCSQSTHVPWTFGGGTKLEIK
notes: Acridinium-labelled in the plate assays
For the molecule B1, the binding result in test [1], in test [2], in test [3], in test [4], in test [5] and in [6] was “binds” throughout. Moreover, the binding result in [7], in test [8], in test [9], in test [10], in test [11] and in [12] was “no binding” each time. Besides, the binding result in [13], in test [14], in [15] and in [16] was “binds” throughout.
